Measured values taken from patent US20060018915A1 (EPIMUNNE, published 2006).

Columns and labels:
Assay in all cases: HLA binding, candidate-epitope table; assay not described
[1] = target: T1, A*6801 (human, UniProt P61769 21-119, limits assumed)
T1 construct: MHC class I molecule; form in the assay not described; also called HLA-A*6801

[2] = target: T2, A*3101 (human, UniProt P61769 21-119, limits assumed)
T2 construct: MHC class I molecule; form in the assay not described; also called HLA-A*3101

[3] = target: T3, A*0301 (human, UniProt P61769 21-119)
T3 construct: MHC class I molecule; form in the assay not described; also called HLA-A*0301

[4] = target: T4, A*0101 (human, UniProt P61769 21-119)
T4 construct: MHC class I molecule; form in the assay not described; also called HLA-A*0101

| IC50 [1] | IC50 [2] | IC50 [3] | IC50 [4] | Binder |
| --- | --- | --- | --- | --- |
| 4 nM | 13 nM | 100 nM |  | VVFGILIKR (also called 1095.51) [Her2/neu.669] |
|  |  |  | 68 nM | GSDCTTIHYNY (also called 52.0136) [p53.226] |
